For the test, the target named is T1, rProtein A Sepharose FF (Staphylococcus aureus, UniProt P38507 37-327, immobilized on Sepharose FF chromatography resin (commercial, GE Healthcare)).
T1 construct: all other ligands (L1-L78, A2P, MEP Hypercel) are small molecules; also called rProtA; rProtein A Sepharose 4 FF
Put plainly: batch adsorption in 96-well plates, Langmuir isotherm fit, Bradford assay of supernatant.

B1: Bevacizumab (Avastin, F. Hoffmann-La Roche, Switzerland) (antibody, V domains shown)
VH: EVQLVESGGGLVQPGGSLRLSCAASGYTFTNYGMNWVRQAPGKGLEWVGWINTYTGEPTYAADFKRRFTFSLDTSKSTAYLQMNSLRAEDTAVYYCAKYPHYYGSSHWYFDVWGQGTLVTVSS
VL: DIQMTQSPSSLSASVGDRVTITCSASQDISNYLNWYQQKPGKAPKVLIYFTSSLHSGVPSRFSGSGSGTDFTLTISSLQPEDFATYYCQQYSTVPWTFGQGTKVEIK
Molecule B1 gave a Kd of 4.7 µg/mL.

As usually defined, the Kd is the equilibrium constant for the complex coming apart. Low values mean a tighter complex, high ones a looser complex.

For the origin of these results see patent publication US20170152288A1 (published 2017).
